Laboratory results reported in the DeepSol protein solubility set.

Test: soluble on expression in E. coli; label from the status in PepcDB or PDB records

Sequence | soluble on expression in E. coli
MQMLDRLESEILADRVSEESRRWLASCGLTVEQMKNQMDPVYTPARKIHLYHCDHRGLPLALISTEGATAWCAEYDEWGNLLSDENPHHLQQLIRLPGQQYDEESGLYYNRHRYYDPLLGRYITQDPIGLKGGWNFYQYPLNPVINVDPQGLVDINLYPESDLIHSVADEINIPGVFTIGGHGTPTSIESATRSIMTAKDLAYLIKFDGNYKDGMTVWLFSCNTGKGQNSFASLEHHHHHH | not soluble
MQNDVFFDLTQHGFSEDEASQLMVYGQELELPTRHILSHQGEFSSHIYFILEGLCHASYLTEKGKEFSKEFYWEKDWVIGFESVIKGQPSPYLLETLTACHLFCLPIEALHQWRAEKHSIYLKLLETQLMNKENKERFMLLYSPEERYQLFCHHYPDLEQRITDSQIAAYLGITAISLSRIKARLAKDNK | not soluble
MQNELQTALFQAFDTLNLQRVKTFSVPPVTLCGPGSVSSCGQQAQTRGLKHLFVMADSFLHQAGMTAGLTRSLTVKGIAMTLWPCPVGEPCITDVCAAVAQLRESGCDGVIAFGGGSVLDAAKAVTLLVTNPDSTLAEMSETSVLQPRLPLIAIPTTAGTGSETTNVTVIIDAVSGRKQVLAHASLMPDVAILDAALTEGVPSHVTAMTGIDALTHAIEAYSALNATPFTDSLAIGAIAMIGKSLPKAVGYGHDLAARESMLLASCMAGMAFSSAGLGLCHAMAHQPGAALHIPHGLANAMLLPTVMEFNRMVCRERFSQIGRALRTKKSDDRDAINAVSELIAEVGIGKRLGDVGATSAHYGAWAQAALEDICLRSNPRTASLEQIVGLYAAAQ | soluble
MQNETINLKQHLAAIKEYWQPEIINRHGFQFHLVKLLGDYGWHTHGYSDKVLFAVEGDMAVDFADGGSMTIREGEMAVVPKSVSHRPRSENGCSLVLIELSDPSEAV | soluble
MQNLSSTQREILLALVDLYNRYKRMIKSKEVADVIGKDEGTVRNIILSLKVLGLIESKPGPNGGYVPTLKAYESIKNPIITPVFDQISLYKDGLETDIKISNIELLDITNPSGNKVLLRVNGDLRKLKVGDSIKIGPIPYTRLVIEGVVIHIDDTRKELIADVTRMISIPKVQIKSLISKKLVALKPDMTLKEASQIFYKEGIRGAPVLDNEGKTLGILTTADIIKAFFEGKYDAKVSEYMKSNVISIRDEDDILTAIKKMLIYNVGRLLVYNQDQKVIGIVTRTDILKTIAGLEELITP | soluble
MQNVLIVGVGFMGGSFAKSLRRSGFKGKIYGYDINPESISKAVDLGIIDEGTTSIAKVEDFSPDFVMLSSPVRTFREIAKKLSYILSEDATVTDQGSVKGKLVYDLENILGKRFVGGHPIAGTEKSGVEYSLDNLYEGKKVILTPTKKTDKKRLKLVKRVWEDVGGVVEYMSPELHDYVFGVVSHLPHAVAFALVDTLIHMSTPEVDLFKYPGGGFKDFTRIAKSDPIMWRDIFLENKENVMKAIEGFEKSLNHLKELIVREAEEELVEYLKEVKIKRMEI | soluble
MQPSHPSQPSHADRAAPTSALAPVVPPVLAEVVRSGFVEGRHRGSLVVLGADGAVELALGEVTAPVFPRSSNKPMQAAGVLRAGLDLAGERLALAAASHSGEPFHRDLVRKMLDEYGLDPALLQCPPDLPLDAEERETYLASGAEPDRVTMNCSGKHTAMLAVCAQQGWPLETYLDPEHPLQRVIHRVVEDAAGEPVAAVGTDGCGAPLMAISLVGLARAFRSFVAAEPGSAERRVADAMRAHPEYVAGSRRADTWLMREVPGSLSKMGAEAVQAVALPDGRALAFKIEDGATRALGPVLARALTLLGVDAPVVGRIGRAPLLGGGREVGEIRASFLEHHHHHH | not soluble
MQQTTQIQPSFTLKTREGGVASADERADEVVIGVGPAFDKHQHHTLIDMPHGAILKELIAGVEEEGLHARVVRILRTSDVSFMAWDAANLSGSGIGIGIQSKGTTVIHQRDLLPLSNLELFSQAPLLTLETYRQIGKNAARYARKESPSPVPVVNDQMVRPKFMAKAALFHIKETKHVVQDAEPVTLHIDLVRE | soluble
MQRKTFADAECPIARSLERVGEWWSILIMRDALQGLRRFDEFSRSLDIAPNMLTRRLNALVEAGLLERQPYSQRPLRYQYVPTAKGEDFRVVLMAFVAWGNRHYAEEGQSVQLVERTSGRPVRSFMAALADGRTVPLEQCTVQAGPAASEEMRQRLAAMPERSELPAR | not soluble
MQRNVMSEIVYGDKQLQILIAAEKLIAEQGFQGLSMHKVAKAANMATGTIYRYFRDKDHLLIEVRLHVSQKIAEAVQANLRDDMSLQERFRTMWLNIWTLAGSCRDIISNRVQYESLPTTTCCNVRELEQKMFAKVELLFDQGKQQGIFKPLDNHLLSALSFETTVTLARQYALGFYQLDDSTLDAMIQASWDAITQH | not soluble
MQSAKPLFDYPKYWAECFGPAPFLPMSREEMDLLGWDSCDIIIVTGDAYVDHPSFGMAIIGRLLESQGFRVGIIAQPNWQSKDDFMKLGEPNLFFGVAAGNMDSMINRYTADKKIRSDDAYTPGGMAGKRPDRASLVYSQRCKEAYKHVPIVLGGIEASLRRIAHYDYWQDKVRNSILIDACADILLYGNAERAIVEVAQRLSYGHKIEDITDVRGTAFIRRDTPQGWYEVDSTRIDRPGKVDKIINPYVNTQDTQACAIEQEKGNVEDPNEAKVVQILASPRMTRDKTVIRLPSVEKVRNDAVLYAHANRVLHLETNPGNARALVQKHGEVDVWFNPPPIPMTTDEMDYVFGMPYARVPHPAYGKEKIPAYDMIRFS | not soluble
MQSLIGLMRPETGKKLENLNHFIQQFEKVLIAFSGGVDSSTLAAVCSNAGVEVLAVTVLSSVSPRREMEEAKRIAEELGVRHEFLKIDLMDEDFRRNDENRCYYCKRRVLSALVEEAKKRGIEVVLEGTNASDLSDHRPGYRAVRELDGVNSPWVEFGITKEEIREIARSMGYSFHDKPSMACLASRIPFGIEIDEEKLKMVDEAEEAVIELAGVKQVRVRNYDGVAVVEVAGDELRKLLNCAEKVRDKLKKIGFRAVLIDLEGYRSGKRLFKF | not soluble
MQSTFRRSTLAALRGFALPSDAISIVPSAADYRRCLLEKIASATRRIYIIALYLQQDEAGQEILDALYAAKAARPELDVVVLVDWFRAQRGLIGAGRQPGNSTWYQAQNLEYDEEVPIYGVPVQTRELFGVLHLKGSVIDDCVIYSGASINNVYLHKLDKYRLDRYHLIESAPLADSFEHLVQREILPSAAVHRLDLQSPPSSRSLRSEIRAFRSDLKRATYDTSAGDKENGQLRVIPLLGVGPRNSLNRAICDLIASSKIQLTICTPYFNLPVAVTREVNRALKRGVKVDIIIGDKTANDFFIDPDEPFKVISALPYLYEISLRRFAHKHQKAIAQQRLNVHLWKHGDNTFHLKGIWVDQRYTLLTGNNLNPRAFNLDLENGLLIDDPQGQWTDPREAEIAQLMRNTQRVNQYDELDTLANYPEGVRKFLKRVSRVRVERLLYRILLEHHHHHH | not soluble
MQTFGSRGEKRTFEMLTNEVEYQHYRFSFANNPATAAGIFQLAEIELTVVADAPLVDFASNISRAEIGENVQFWDRSLANPTGWQWTFEDGEPATSTNRNPAVTFTSLGAKSVTLVASNDKGSNEKVQEQVVHIWDSQNPWAGYVKPTVTLVAHKPEHEGQIAFSRVMPDIEAVIHDISLQIVKVLYKDVAEAPLFKTVTFETDEYDFPAAKSGTDEDMILMMDVAHLANKAAEGDDALRDEVIGMLWHELTHGYNNSPNSGEYATGDEYHSYLESLANYMRIKAGFHESRRVGIKWVDNWNVDAYEQTSFFLEWVANSHRSVDFIYLFNKAAGDLKEWSFEAAFKSIFGEDKGVSIFWQEYHDAQGIEPPYPTPVDGYRNFAVDEGVSISTNATTVIIPDWDAYEGEDKLIDNNVTKKFNAFIEGTWWLEEHASHLFPINDITNVEVTFELPDAIVLHKYSVTTGNDNPQRDPTLWTISGSVDGEVWTQLDSDNYPSDPERLITFHYDIDDAVTAYKYYQFVFENTQPAGDSIGGDNGRLVQIGEIALLTEELEHHHHHH | soluble
MQTGRQQNKGTIFASLNMSRKNRHNVLPRATMLRKKAIQIRLNEAEHKAVETYCSRFKVENRSRWIRETLMKEVIHRLESDTPLLFREEEMR | not soluble
MQTSFCVLVSIIERMPTWNDIKVRNPQHSHNYAKRWENLEAEGNDINGEARLIDALVQRGSKILDAGCGQGRVGGYLSARGHIVTGIDIDDYLISEAEKKFPSATWHVGDLGSESIPDQGFDIAVCAGNVITFIEPDKQEAALAHIFEALRPNGRCIIGFGAGRGYVFPQFFEDARNVGFVIENNFESWGLNPLTNRSQFLVAFLRKPELEHHHHHH | not soluble
MQTVIGTTNGRPGTTYYQRGRMHRHQPGNRQQKEKKAAAGRNRNDFLTGRILPVTPDYCMEIRAGEKINLTTRENFDFLYRSALRYSALVGLRLPFRPTGKSPRMNIVKLYRAMDTILPEHVNLEEENGRLYFCLYRFHEWPEYKLFWIPLEFTERLPEKLGKIALEFIRQLARHHGIPKSTDTSYHEMAHDYLEDYRLYDEEATAGEIRRKAALARLYEKGKAHRILKRMDNPKGFLADLEGEIRKYHTKKNNERALLELLTEGTAYISYGSPSIMQYSYDWAYEKAADFRPVGLDTQIMVTWSVKDAMNDEMESYFNSDYQESYVITPVTTFHLTPDTEKPFSMDDFPERFSHWLERFTKLITNNF | not soluble
MQTYIETSRLILRDWKEEDIPAFARMNADPHVMEFFLHPLTPEESLAFYHRIQNEFQTCGFGLYAVERKEDHAFMGYTGLHQITFDVDFAPGIEIGWRLAHEYWGRGYAPEAATACLEYARKSLDIKELFSFTSLPNQRSERVMQKIGMERVREFGHPLVPAEHPLHRHVLYYIDLRKHSS | not soluble
MQVELIIKNLKVYNSYFKKFIKSDVLINEGKFLHIGKGYEDRLWSENIIDGEDKYIIPGLIDIHMHIESSMTIPREFSKAAIKHGVTTVVADPHEIANVFGVRGIEEFIKFKGNLDIFYGILEHHHHHH | not soluble
MQYFDVARILTTHGLHGEVKVNVITDFPEDRFAEGMQLELKDDIDRVLTIKKSRPFKQFWLLQFDEITDIDEAEKLRGKILVISEKDRGELPDGVYYYKDIFDCGVIDNETGKRLGKITDIQSPGANDIWLVHEDNGKEYWIPNIADVVKKIDIADKKVYVELMEGLRDEDLEHHHHHH | soluble
MQYIKIHALDNVAVALADLAEGTEVSVDNQTVTLRQDVARGHKFALTDIAKGANVIKYGLPIGYALADIAAGEHVHAHNTRTNLSDLDQYRYQPDFQDLPAQAADREVQIYRRANGDVGVRNELWILPTVGCVNGIARQIQNRFLKETNNAEGTDGVFLFSHTYGCSQLGDDHINTRTMLQNMVRHPNAGAVLVIGLGCENNQVAAFRETLGDIDPERVHFMICQQQDDEIEAGIAHLHQLYSVMRNDKREPGKLSELKFGLECGGSDGLSGITANPMLGRFSDYVIANGGTTVLTEVPEMFGAEQLLMDHCRDEATFEKLVTMVNDFKQYFIAHDQPIYENPSPGNKAGGITTLEDKSLGCTQKAGSSVVVDVLRYGERLKTPGLNLLSAPGNDAVATSALAGAGCHMVLFSTGRGTPYGGFVPTVKIATNSELAAKKKHWIDFDAGQLIHGKAMPQLLEEFIDTIVEFANGKQTCNERNDFRELAIFKSGVTL | not soluble
MRADVKPVTVKLVDSQATMETRSLFAFMQEQRRHSIMFGHQHETTQGLTITRTDGTQSDTFNAVGDFAAVYGWDTLSIVAPKAEGDIVAQVKKAYARGGIITVSSHFDNPKTDTQKGVWPVGTSWDQTPAVVDSLPGGAYNPVLNGYLDQVAEWANNLKDEQGRLIPVIFRLYHENTGSWFWWGDKQSTPEQYKQLFRYSVEYLRDVKGVRNFLYAYSPNNFWDVTEANYLERYPGDEWVDVLGFDTYGPVADNADWFRNVVANAALVARMAEARGKIPVISGIGIRAPDIEAGLYDNQWYRKLISGLKADPDAREIAFLLVWRNAPQGVPGPNGTQVPHYWVPANRPENINNGTLEDFQAFYADEFTAFNRDIEQVYQRPTLIVK | soluble
